The target of the assay is cellular receptor for the apoE peptide (not named), on cells. Briefly: competition binding on cells (250,000 cells per well, 4 C); competitor/tracer biotinylated apoE 133-149, detected with 125I-streptavidin.

What is called IC50 is the point on the concentration scale where inhibition reaches its midpoint. LRVRLASHLRKLRKRLL [COG133 (apoE 133-149 peptide), unlabeled] showed a 50% inhibitory concentration (IC50) of 4 µM.

For the origin of these results see patent publication US20110306550A1.
